# Positions count from the first letter of the chain named.
# B1: R44: mhuTF in which arginine is substituted in place of D44 (protein, UniProt P13726 33-295, looked up, variant D44R)
# Tissue factor: SGTTNTVAAYNLTWKSTNFKTILEWEPKPVNQVYTVQISTKSGRWKSKCFYTTDTECDLTDEIVKDVKQTYLARVFSYPAGNVESTGSAGEPLYENSPEFTPYLETNLGQPTIQSFEQVGTKVNVTVEDERTLVRRNNTFLSLRDVFGKDLIYTLYYWKSSSSGKKTAKTNTNEFLIDVDKGENYCFSVQAVIPSRTVNRKSTDSPVECMGQEKGEFREIFYIIGAVVFVVIILVIILAISLHKCRKAGVGQSWKENSPLNVS
# B2: S16-T17-K20: human tissue factor triple mutant with alanine at positions 16, 17 and 20 (protein, UniProt P13726 33-295, looked up, variant S16A T17A K20A)
# Tissue factor: B1 Tissue factor with S16A, T17A, K20A, R44D
# B3: Thr-139/Ser-142: human tissue factor mutant, Thr-139 and Ser-142 exchanged for alanine (protein, UniProt P13726 33-295, looked up, variant T139A S142A)
# Tissue factor: B1 Tissue factor with R44D, T139A, S142A
# B4: Arg-136: human tissue factor mutant, Arg-136 exchanged for alanine (protein, UniProt P13726 33-295, looked up, variant R136A)
# Tissue factor: B1 Tissue factor with R44D, R136A
# B5: Arg-135: human tissue factor mutant, Arg-135 substituted by Ala (protein, UniProt P13726 33-295, looked up, variant R135A)
# Tissue factor: B1 Tissue factor with R44D, R135A
# B6: Phe-140: human tissue factor mutant, Phe-140 substituted by Ala (protein, UniProt P13726 33-295, looked up, variant F140A)
# Tissue factor: B1 Tissue factor with R44D, F140A
# B7: Arg-131: human tissue factor mutant, Arg-131 exchanged for alanine (protein, UniProt P13726 33-295, looked up, variant R131A)
# Tissue factor: B1 Tissue factor with R44D, R131A
# B8: K65-D66-K68: human tissue factor triple alanine mutant at positions 65, 66 and 68 (protein, UniProt P13726 33-295, looked up, variant K65A D66A K68A)
# Tissue factor: B1 Tissue factor with R44D, K65A, D66A, K68A
# B9: Ile-22 to Ala: full-length human tissue factor mutant, Ile-22 replaced by alanine (protein, UniProt P13726 1-295, looked up, variant I22A)
# chain: METPAWPRVPRPETAVARTLLLGWVFAQVAGASGTTNTVAAYNLTWKSTNFKTALEWEPKPVNQVYTVQISTKSGDWKSKCFYTTDTECDLTDEIVKDVKQTYLARVFSYPAGNVESTGSAGEPLYENSPEFTPYLETNLGQPTIQSFEQVGTKVNVTVEDERTLVRRNNTFLSLRDVFGKDLIYTLYYWKSSSSGKKTAKTNTNEFLIDVDKGENYCFSVQAVIPSRTVNRKSTDSPVECMGQEKGEFREIFYIIGAVVFVVIILVIILAISLHKCRKAGVGQSWKENSPLNVS
# modifications: full-length
# notes: full-length human tissue factor mutant, Ile-22 replaced by alanine
# B10: Asp-58 to Ala: human tissue factor mutant, Asp-58 to Ala exchange (EN-strand) (protein, UniProt P13726 33-295, looked up, variant D58A)
# Tissue factor: B1 Tissue factor with R44D, D58A
# B11: Val-64/Tyr-71 to Ala: human tissue factor Val-64/Tyr-71 to Ala double mutant (protein, UniProt P13726 33-295, looked up, variant V64A Y71A)
# Tissue factor: B1 Tissue factor with R44D, V64A, Y71A
# B12: Arg-196: human tissue factor mutant, Arg-196 replacement by alanine in the Fc-Gc-loop (protein, UniProt P13726 33-295, looked up, variant R196A)
# Tissue factor: B1 Tissue factor with R44D, R196A
# Tested on: Factor X
# Assay: Functional cleavage of Factor X by the TF-VIIa complex (reaction rate Vmax), D44 mutants
# Type: biochemical
# Conditions: calculated from Vmax rates
# Procedure: (§1) The lysate was prepared by treating cell pellets with 15 mM octyl-glucopyranoside for 15 minutes at 37 C. followed by a 3-fold dilution. […] Formed TF-VIIa complexes were quantified with substrate factor X added at 100 nM for a fixed time. Samples were then removed from the reaction and quenched in 100 mM EDTA in TBS (20 mM Tris-HCl 140 mM NaCl, pH 7.4). […] The rate of Spectrozyme hydrolysis, measured as the increase in absorbance (mOD/min), was determined at ambient temperature in a kinetic plate reader (Molecular Devices, Mountain View, Calif.) followed by quenching and monitoring of product factor Xa formation using the Spectrozyme FXa.
# Additional mhuTF mutants were prepared based on amino acid residue substitutions at amino acid residue position number D44.
row,Molecule,"loss of function (specific functional activity, Vmax) compared to wild-type [%]"
1,B1,75

# Same assay, conditions: cleavage of Factor X
row,Molecule,reaction rate (Vmax) [per second]
1,B1,~0.5

# Tested on: coagulation in recalcified plasma
# Assay: One stage clotting (coagulation) assay of specific functional activity of full-length TF mutants in CHO cell lysates
# Type: biochemical
# Conditions: full-length Ala mutant expressed in CHO cells, cell lysate, coagulant activity normalized to antigen, relative to wild-type TF
# Procedure: The full-length TF mutants prepared above were analyzed for function by coagulation assay. […] Coagulation factor deficient plasmas were purchased from George King Bio-medical. The chromogenic substrate, Spectrozyme FXa, was from American Diagnostica Inc. (Greenwich, Conn.).
# An alternative approach was to use a polyvalent antibody purified by affinity for capturing TF followed by detection with the TF8-5G9 monoclonal antibody described above.
# Initiation of coagulation by wild-type and mutant TF in recalcified plasma was determined after lysis of cell pellets from 2×10^6 cells/ml for each expressed full-length mutant with 15 mM octyl-glucopyranoside in HBS for 15 minutes at 37 C. followed by a 3-fold dilution.
# All data represented are based on at least three independent determinations performed in duplicate.
row,Molecule,loss of function (reduction in specific functional activity as % of wild-type activity)
1,B2,98%
2,B3,30-50%
3,B4,30-50%
4,B5,30-50%
5,B6,30-50%
6,B7,30-50%
7,B8,70%
8,B9,35%

# Tested on: recombinant VIIa
# Assay: Linked chromogenic assay with purified VIIa and factor X, apparent dissociation constant of the TF-VIIa interaction
# Type: biochemical
# Conditions: full-length Ala mutants, linked chromogenic assay
# Procedure: as §1
# Enzfitter (Elsevier Biosoft) programs were employed to calculate the KDapp from the experimentally determined bound VIIa, and free VIIa which was obtained by subtracting bound VIIa from the initial VIIa concentration.
row,Molecule,change in KDapp for the TF-VIIa interaction compared to wild-type TF (ratio KD mutant/KD wild-type) [fold]
1,B10,41
2,B5,7.4
3,B11,2.1
4,B6,18
5,B12,3.5
6,B9,11

# Same assay, conditions: triple alanine mutants
row,Molecule,binding of Factor VIIa
1,B2,not substantially bind Factor VIIa
2,B8,not substantially bind Factor VIIa
